Measurements reported in patent US20150086555A1.

B1: TCN-522 (3212_I12) (antibody, V domains shown)
VH: QVQLQQWGAGLLKPSETLSLTCTVSGGSLTDYSWNWIRQPPGKGLEWIGDTLHNGYTNYNPSLRGRVSISIDTSKNQVSLRLTSVTAADTALYYCARGSGGYGGFDYFGKLRTWDFWGQGTLVTVSS
VL: DIQLTQSPSSLSASVGDRVTITCRASQGIRNDLGWYQQKPGNAPKRLIFGASSLQSGVPSRFSGSGSGTEFTLTISSLQPEDFATYYCLQHNSYPYTFGQGTKLEIK
B2: TCN-528 (5087_P17) (antibody, V domains shown)
VH: QVQLVQSGSEVKKPGASVKVSCKASGYTFTNYDINWIRQAPGQGLEWMGWINPNSGTTGSAQRFQGRVTITVDTSITTVYMELSSLRSDDTAIYYCARGRELLRLQHFLTDSQSERRDCFDPWGQGTLVTVSS
VL: DIQMTQSPSSLSASVGDRVTITCRANQDIGIYLNWYQQNPGKVPKLLLHGASSLQGGVPSRFSASGSGTDFTLTIHSLQPEDLATYYCQQSRRLPYTFGQGTRVELK
B3: TCN-527 (5086_C06) (antibody, V domains shown)
VH: QVQLQESGPGLVKPSETLSLNCAVSGGSISNYYWSWIRQPPGKGLEWIGYISYNGRPKYNPSLTSRVTISVDTSKDQFSLELRSVTAADTALYYCARETRFGELLSPYDAFEIWGQGTMVTVSS
VL: DIQMTQSPSSLSASVGDRVTMTCRASQNIRSYLNWYQQRPGTAPKLLIYAASTLHSGVPSRFSGGGSGTDFTLTINNLQPEDFASYYCQQSYDNPQTFGQGTKVEIK

Legend:
Conditions in all cases: remark: other sources report otherwise
[1] = target: recombinant soluble homotrimeric HA of A/California/4/09 (H1N1) (Influenza A virus A/California/04/2009(H1N1)); test: HA microarray, BCC supernatant
[2] = target: recombinant soluble homotrimeric HA of A/Hong Kong/2108/03 (H9N2) (Influenza A virus A/HK/2108/2003(H9N2)); test: HA microarray, BCC supernatant
[3] = target: recombinant soluble homotrimeric HA of A/Indonesia/5/05 (H5N1) (Influenza A virus A/Indonesia/5/2005(H5N1)); test: HA microarray, BCC supernatant
[4] = target: recombinant soluble homotrimeric HA of A/Japan/305/57 (H2N2) (Influenza A virus A/Japan/305/1957(H2N2)); test: HA microarray, BCC supernatant
[5] = target: recombinant soluble homotrimeric HA of A/Solomon Islands/3/06 (H1N1) (Influenza A virus A/Solomon Islands/3/2006(H1N1)); test: HA microarray, BCC supernatant
[6] = target: recombinant soluble homotrimeric HA of A/Vietnam/1203/04 (H5N1) (Influenza A virus A/VietNam/1203/2004(H5N1)); test: HA microarray, BCC supernatant
[7] = target: recombinant soluble homotrimeric HA of A/duck/Yangzhou/02/05 (H8N4) (Influenza A virus A/duck/Yangzhou/02/2005(H8N4)); test: HA microarray, BCC supernatant
[8] = target: recombinant homotrimeric HA A/Anhui/1/05 H5N1 (Influenza A virus A/Anhui/1/2005(H5N1)); test: protein microarray, purified IgG, trimeric HA
[9] = target: recombinant homotrimeric HA A/California/4/09 H1N1 (Influenza A virus A/California/04/2009(H1N1)); test: protein microarray, purified IgG, trimeric HA
[10] = target: recombinant homotrimeric HA A/Egypt/3300-NAMRU3/08 H5N1 (Influenza A virus A/Egypt/3300-NAMRU3/2008(H5N1)); test: protein microarray, purified IgG, trimeric HA
[11] = target: recombinant homotrimeric HA A/Hong Kong/1073/99 H9N2 (Influenza A virus A/Hong Kong/1073/99 (H9N2)); test: protein microarray, purified IgG, trimeric HA
[12] = target: recombinant homotrimeric HA A/Hong Kong/156/97 H5N1 (Influenza A virus A/Hong Kong/156/97 (H5N1)); test: protein microarray, purified IgG, trimeric HA
[13] = target: recombinant homotrimeric HA A/Indonesia/5/05 H5N1 (Influenza A virus A/Indonesia/5/2005(H5N1)); test: protein microarray, purified IgG, trimeric HA
[14] = target: recombinant homotrimeric HA A/Japan/305/57 H2N2 (Influenza A virus A/Japan/305/1957(H2N2)); test: protein microarray, purified IgG, trimeric HA
[15] = target: recombinant homotrimeric HA A/Solomon Islands/3/06 H1N1 (Influenza A virus A/Solomon Islands/3/2006(H1N1)); test: protein microarray, purified IgG, trimeric HA
[16] = target: recombinant homotrimeric HA A/South Carolina/1/18 H1N1 (Influenza A virus A/South Carolina/1/18 (H1N1)); test: protein microarray, purified IgG, trimeric HA
[17] = target: recombinant homotrimeric HA A/Vietnam/1203/04 H5N1 (Influenza A virus A/VietNam/1203/2004(H5N1)); test: protein microarray, purified IgG, trimeric HA
[18] = target: recombinant homotrimeric HA A/Wisconsin/67/05 H3N2 (Influenza A virus A/Wisconsin/67/2005(H3N2)); test: protein microarray, purified IgG, trimeric HA
[19] = target: recombinant homotrimeric HA A/chicken/Vietnam/NCVD-016/08 H5N1 (Influenza A virus A/chicken/Vietnam/NCVD-016/2008(H5N1)); test: protein microarray, purified IgG, trimeric HA
[20] = target: recombinant homotrimeric HA A/northern shoveler/California/HKWF115/07 H6N4 (Influenza A virus A/northern shoveler/California/HKWF115/2007(H6N1)); test: protein microarray, purified IgG, trimeric HA
[21] = target: recombinant soluble homotrimeric HA of A/Anhui/1/05 (H5N1) (Influenza A virus A/Anhui/1/2005(H5N1)); test: HA microarray, BCC supernatant
[22] = target: recombinant soluble homotrimeric HA of A/Netherlands/219/03 (H7N7) (Influenza A virus A/Netherlands/219/03(H7N7)); test: HA microarray, BCC supernatant
[23] = target: recombinant soluble homotrimeric HA of A/Wisconsin/67/05 (H3N2) (Influenza A virus A/Wisconsin/67/2005(H3N2)); test: HA microarray, BCC supernatant
[24] = target: recombinant soluble homotrimeric HA of A/chicken/Vietnam/NCVD-016/08 (H5N1) (Influenza A virus A/chicken/Vietnam/NCVD-016/2008(H5N1)); test: HA microarray, BCC supernatant
[25] = target: recombinant soluble homotrimeric HA of A/northern shoveler/California/HKWF115/07 (H6) (Influenza A virus A/northern shoveler/California/HKWF115/2007(H6N1)); test: HA microarray, BCC supernatant
[26] = target: recombinant soluble homotrimeric HA of A/swine/Ontario/01911-2/99 (H4N6) (Influenza A virus A/Swine/Ontario/01911-2/99 (H4N6)); test: HA microarray, BCC supernatant
[27] = target: recombinant homotrimeric HA A/Hong Kong/2108/03 H9N2 (Influenza A virus A/HK/2108/2003(H9N2)); test: protein microarray, purified IgG, trimeric HA
[28] = target: recombinant homotrimeric HA A/Netherlands/219/03 H7N7 (Influenza A virus A/Netherlands/219/03(H7N7)); test: protein microarray, purified IgG, trimeric HA

| Binder | Trimeric HA Binding: RLU [1] [RLU] | Trimeric HA Binding: RLU [2] [RLU] | Trimeric HA Binding: RLU [3] [RLU] | Trimeric HA Binding: RLU [4] [RLU] | Trimeric HA Binding: RLU [5] [RLU] | Trimeric HA Binding: RLU [6] [RLU] | Trimeric HA Binding: RLU [7] [RLU] | Trimeric HA Binding: RLU [8] [RLU] | Trimeric HA Binding: RLU [9] [RLU] | Trimeric HA Binding: RLU [10] [RLU] | Trimeric HA Binding: RLU [12] [RLU] | Trimeric HA Binding: RLU [13] [RLU] | Trimeric HA Binding: RLU [14] [RLU] | Trimeric HA Binding: RLU [15] [RLU] | Trimeric HA Binding: RLU [16] [RLU] | Trimeric HA Binding: RLU [17] [RLU] | Trimeric HA Binding: RLU [18] [RLU] | Trimeric HA Binding: RLU [19] [RLU] | Trimeric HA Binding: RLU [20] [RLU] | Trimeric HA Binding: RLU [21] [RLU] | further results |
| --- | --- | --- | --- | --- | --- | --- | --- | --- | --- | --- | --- | --- | --- | --- | --- | --- | --- | --- | --- | --- | --- |
| B1 | 5020 | 639 | 67 | 989 | 38900 | 145 | 502 | 5260 | 13900 | 11300 | 14800 | 12500 | 9740 | 19100 | 4500 | 11300 | 108 | 1960 | 3180 |  | Trimeric HA Binding: RLU [11]: 5050 RLU |
| B2 | 48800 | 42000 | 42800 | 46400 | 44800 | 45600 | 38400 | 28800 | 6810 | 25600 | 25700 | 27000 | 30100 | 25400 | 16900 | 24600 | 1060 | 22700 | 18000 | 49800 | Trimeric HA Binding: RLU [22]: 49300 RLU; Trimeric HA Binding: RLU [23]: 48800 RLU; Trimeric HA Binding: RLU [24]: 38200 RLU; Trimeric HA Binding: RLU [25]: 46800 RLU; Trimeric HA Binding: RLU [26]: 47500 RLU; Trimeric HA Binding: RLU [27]: 23600 RLU; Trimeric HA Binding: RLU [28]: 16700 RLU |
| B3 | 28000 | 16000 | 23800 | 19300 | 16500 | 21300 | 28800 | 24700 | 18600 | 23900 | 28600 | 29600 | 27000 | 22900 | 314 | 19800 | 600 | 25200 | 13200 | 21400 | Trimeric HA Binding: RLU [22]: 8890 RLU; Trimeric HA Binding: RLU [23]: 5720 RLU; Trimeric HA Binding: RLU [24]: 27000 RLU; Trimeric HA Binding: RLU [25]: 30300 RLU; Trimeric HA Binding: RLU [26]: 7690 RLU; Trimeric HA Binding: RLU [27]: 18700 RLU; Trimeric HA Binding: RLU [28]: 15200 RLU |
